± gives the uncertainty stated by the source.

To fix the notation:
B1: Dystrobrevin alpha, residues 235 to 294; numbered along this chain, Q9Y4J8 (parent)
chain: ENVFHPVECSYCHSESMMGFRYRCQQCHNYQLCQDCFWRGHAGGSHSNQHQMKEYTSWKS

This data set covers variants of B1. The experiment in a line: abundance fitness (aPCA) (normalised: wild type 0, dead -1); higher = more abundant; growth selection in yeast, the domain comes from the species named. The settings on record: Homo sapiens.
Take Q34H: the abundance fitness is -0.156 ± 0.065.

For Q34A, the abundance fitness is -0.053 ± 0.12.

For C36A, the abundance fitness is -0.881 ± 0.14.

For C36P, the abundance fitness was -0.565 ± 0.17.

For the variant Q49I, the abundance fitness was -0.205 ± 0.06.

Q49A: the abundance fitness is 0.073 ± 0.031.

Regarding M18K, the abundance fitness was 0.029 ± 0.07.

For M18W, the abundance fitness is -0.266 ± 0.12.

For M18V, the abundance fitness stood at 0.155 ± 0.055.

Regarding M18I, the abundance fitness is -0.021 ± 0.092.

M18Y: the abundance fitness worked out at 0.075 ± 0.073.

In the case of C12E, the abundance fitness is -0.997 ± 0.18.

Turning to C12K, the abundance fitness was -0.943 ± 0.14.

Take S10L: the abundance fitness was -0.693 ± 0.086.

Turning to S10R, the abundance fitness is -0.476 ± 0.063.

K59N: the abundance fitness was 0.017 ± 0.3.

Regarding K59G, the abundance fitness stood at 0.229 ± 0.08.

In the case of G19A, the abundance fitness was determined as 0.176 ± 0.069.

For G19V, the abundance fitness was -0.13 ± 0.071.

In the case of G19C, the abundance fitness is -0.191 ± 0.077.

For the variant G19F, the abundance fitness was -0.219 ± 0.09.

Consider E1A, for which the abundance fitness was -0.257 ± 0.092.

Take L32S: the abundance fitness was -0.308 ± 0.14.

Regarding L32T, the abundance fitness came to 0.053 ± 0.21.

Take L32Y: the abundance fitness is -0.38 ± 0.14.

In the case of Q31T, the abundance fitness worked out at 0.083 ± 0.077.

Q31I: the abundance fitness was -0.053 ± 0.089.

With Q31F, the abundance fitness came out at 0.119 ± 0.15.

As for Q31A, the abundance fitness was -0.085 ± 0.055.

As to F4S, the abundance fitness is -0.14 ± 0.071.

As for C9E, the abundance fitness was -0.908 ± 0.12.

For C9W, the abundance fitness was -1.23 ± 0.17.

On to R21S, for which the abundance fitness amounted to 0.138 ± 0.095.

Regarding R21H, the abundance fitness turned out to be 0.165 ± 0.2.

Q25I: the abundance fitness is -0.208 ± 0.13.

In the case of Q25G, the abundance fitness is -0.202 ± 0.052.

On to Q25S, for which the abundance fitness was -0.159 ± 0.042.

On to F20V, for which the abundance fitness is 0.104 ± 0.043.

Turning to Y55H, the abundance fitness is -0.134 ± 0.27.

Regarding Y55A, the abundance fitness was -0.064 ± 0.079.

With N2D, the abundance fitness was -0.599 ± 0.15.

Regarding C33S, the abundance fitness is -0.658 ± 0.086.

Consider C33M, for which the abundance fitness was -0.823 ± 0.11.

For the variant H28P, the abundance fitness came to 0.066 ± 0.078.

On to H5L, for which the abundance fitness is -0.125 ± 0.043.

For H5K, the abundance fitness was -0.028 ± 0.092.

As for H5E, the abundance fitness came out at 0.145 ± 0.081.

As for S45R, the abundance fitness was -0.159 ± 0.046.

Take S45G: the abundance fitness was found to be 0.099 ± 0.045.

With S45M, the abundance fitness is -0.269 ± 0.11.

As for S45T, the abundance fitness worked out at 0.098 ± 0.07.

S45H: the abundance fitness was -0.291 ± 0.14.

Regarding S45Q, the abundance fitness is -0.121 ± 0.15.

Regarding S45C, the abundance fitness amounted to 0.06 ± 0.068.

As for C24F, the abundance fitness is -1.04 ± 0.14.

With C24W, the abundance fitness was -1.07 ± 0.16.

As to S14G, the abundance fitness was -0.11 ± 0.059.

In the case of T56G, the abundance fitness was determined as 0.024 ± 0.057.

Regarding T56L, the abundance fitness was -0.462 ± 0.064.

Regarding N48F, the abundance fitness is -0.274 ± 0.08.

As to N48V, the abundance fitness was 0.037 ± 0.063.

H46W: the abundance fitness was -0.427 ± 0.16.

With H46G, the abundance fitness is -0.165 ± 0.087.

H46K: the abundance fitness was -0.117 ± 0.1.

In the case of H46P, the abundance fitness was -0.27 ± 0.093.

Turning to S16Q, the abundance fitness is 0.043 ± 0.089.

Regarding S16K, the abundance fitness was 0.001 ± 0.08.

As for A42D, the abundance fitness is -0.253 ± 0.14.

A42H: the abundance fitness stood at 0.05 ± 0.18.

With A42I, the abundance fitness was -0.372 ± 0.22.

In the case of A42Y, the abundance fitness was -0.381 ± 0.21.

A42P: the abundance fitness is -0.421 ± 0.092.

A42R: the abundance fitness was -0.032 ± 0.055.

Take N29F: the abundance fitness was determined as 0.007 ± 0.062.

As for N29E, the abundance fitness was -0.152 ± 0.09.

Turning to N29Y, the abundance fitness is -0.204 ± 0.084.

As for N29D, the abundance fitness amounted to 0.052 ± 0.081.

In the case of N29S, the abundance fitness is -0.063 ± 0.051.

G44M: the abundance fitness was -0.384 ± 0.14.

For the variant G44N, the abundance fitness was -0.285 ± 0.14.

Take G44Y: the abundance fitness was -0.411 ± 0.19.

On to G40C, for which the abundance fitness is -0.227 ± 0.11.

Consider G40F, for which the abundance fitness was -0.193 ± 0.081.

With G40I, the abundance fitness is -0.27 ± 0.09.

On to E54T, for which the abundance fitness was 0.312 ± 0.21.

On to R23C, for which the abundance fitness came out at 0.176 ± 0.084.

R23S: the abundance fitness was determined as 0.066 ± 0.05.

Consider R23L, for which the abundance fitness is 0.002 ± 0.063.

For the variant R23T, the abundance fitness is -0.008 ± 0.073.

Regarding R23E, the abundance fitness worked out at 0.03 ± 0.059.

Turning to R23V, the abundance fitness was 0.074 ± 0.081.

Take R23A: the abundance fitness was -0.049 ± 0.076.

Take Q26V: the abundance fitness amounted to 0.273 ± 0.081.

As to Q26H, the abundance fitness is -0.315 ± 0.093.

Turning to R39I, the abundance fitness is -0.308 ± 0.071.

In the case of R39A, the abundance fitness was 0.142 ± 0.049.

For R39F, the abundance fitness is -0.34 ± 0.058.

Turning to R39P, the abundance fitness was -0.495 ± 0.058.

As to S57N, the abundance fitness is -0.291 ± 0.12.

Turning to S57L, the abundance fitness is -0.165 ± 0.056.

With S57E, the abundance fitness came out at 0.058 ± 0.072.

H50C: the abundance fitness is -0.301 ± 0.067.

Turning to H50F, the abundance fitness was -0.755 ± 0.084.

Consider Y30K, for which the abundance fitness was -0.519 ± 0.095.

For Y30T, the abundance fitness is -0.426 ± 0.094.

For Y30E, the abundance fitness is -0.378 ± 0.09.

For the variant Y30P, the abundance fitness was -0.638 ± 0.079.

Take Y30S: the abundance fitness was -0.478 ± 0.069.

Turning to W58H, the abundance fitness amounted to 0.105 ± 0.15.

Regarding W58A, the abundance fitness was 0.258 ± 0.05.

As to E15R, the abundance fitness was found to be 0.054 ± 0.054.

In the case of E15D, the abundance fitness is 0.195 ± 0.1.

E15Q: the abundance fitness stood at 0.079 ± 0.062.

For the variant H13R, the abundance fitness was -0.061 ± 0.055.

For D35F, the abundance fitness amounted to 0.197 ± 0.2.

D35M: the abundance fitness was -0.022 ± 0.094.

For the variant D35G, the abundance fitness was -0.235 ± 0.17.

In the case of D35I, the abundance fitness was -0.113 ± 0.11.

For the variant P6A, the abundance fitness came out at 0.07 ± 0.05.

For the variant P6D, the abundance fitness is 0.079 ± 0.066.

On to P6N, for which the abundance fitness was found to be 0.049 ± 0.086.

Turning to P6V, the abundance fitness is -0.089 ± 0.04.

As to P6W, the abundance fitness was -0.127 ± 0.052.

Take Q51L: the abundance fitness was -0.153 ± 0.062.

As for Q51W, the abundance fitness was -0.517 ± 0.095.

Take H41G: the abundance fitness is -0.312 ± 0.076.

With H41R, the abundance fitness was found to be 0.067 ± 0.047.

As to G43S, the abundance fitness turned out to be 0.09 ± 0.063.

Regarding V7N, the abundance fitness is 0.154 ± 0.094.

With V7G, the abundance fitness was -0.085 ± 0.053.

Take V7M: the abundance fitness is -0.08 ± 0.07.

V7P: the abundance fitness was -0.009 ± 0.065.

S60G: the abundance fitness was determined as 0.064 ± 0.48.

S60L: the abundance fitness is -0.196 ± 0.12.

For S60P, the abundance fitness was -0.065 ± 0.092.

In the case of K53S, the abundance fitness was -0.11 ± 0.07.

Regarding K53L, the abundance fitness was -0.108 ± 0.061.

On to K53T, for which the abundance fitness is -0.154 ± 0.085.

On to V3I, for which the abundance fitness was -0.006 ± 0.08.

In the case of V3N, the abundance fitness is 0.149 ± 0.1.

For C27N, the abundance fitness was -0.841 ± 0.19.

On to C27P, for which the abundance fitness was -0.578 ± 0.15.

On to Y22W, for which the abundance fitness was -0.086 ± 0.069.

Regarding Y22M, the abundance fitness is -0.142 ± 0.15.

Turning to Y22V, the abundance fitness is -0.051 ± 0.075.

Y22Q: the abundance fitness was -0.754 ± 0.17.

In the case of Y22L, the abundance fitness was -0.3 ± 0.063.

For Y22A, the abundance fitness is -0.13 ± 0.07.

In the case of S47F, the abundance fitness is -0.455 ± 0.12.

For M17T, the abundance fitness was determined as 0.081 ± 0.069.

With M17W, the abundance fitness was -0.084 ± 0.071.

As for M17D, the abundance fitness was 0.059 ± 0.071.

Take M17F: the abundance fitness was -0.002 ± 0.076.

In the case of M17G, the abundance fitness is 0.085 ± 0.047.

For M52K, the abundance fitness was -0.62 ± 0.12.

Regarding M52Q, the abundance fitness is -0.294 ± 0.14.

For the variant M52F, the abundance fitness was -0.005 ± 0.096.

On to F37D, for which the abundance fitness was -0.488 ± 0.28.

For F37W, the abundance fitness was -0.051 ± 0.093.

On to F37S, for which the abundance fitness was -0.278 ± 0.051.

In the case of W38M, the abundance fitness is 0.37 ± 0.086.

On to W38S, for which the abundance fitness is 0.343 ± 0.059.

For Y11G, the abundance fitness was -0.099 ± 0.052.

For Y11S, the abundance fitness was -0.219 ± 0.061.

For the variant Y11A, the abundance fitness is -0.208 ± 0.076.

Regarding Y11N, the abundance fitness is -0.256 ± 0.071.

In the case of Y11D, the abundance fitness is -0.313 ± 0.084.

Source of the values: the Human Domainome abundance scans (Beltran et al. 2025).
